Starred links: 1 amine or outer side, 2 acyl side, 3 side chain; linkers in the order of their positions; H or OH if unused. Positions of bridges follow the written chain, without caps; N, C: chain ends. Non-standard residues stand in square brackets, D forms with d. Primed or numbered codes have the meaning given here. PyrS2(3) = (S)-3-amino-1-((pent-4-en-1-yloxy)carbonyl)pyrrolidine-3-carboxylic acid, stapling residue, C=CCCCOC(=O)N1CC[C@@](N[*:1])(C(=O)[*:2])C1; PyrS2″ = (S)-3-amino-1-((pent-4-en-1-yloxy)carbonyl)pyrrolidine-3-carboxylic acid (stapling residue), C=CCCCOC(=O)N1CC[C@@](N[*:1])(C(=O)[*:2])C1; SeN″ = (S)-5-(((allyloxy)carbonyl)(methyl)amino)-2-amino-2-methylpentanoic acid (stapling residue), C=CCOC(=O)N(C)CCC[C@](C)(N[*:1])C(=O)[*:2]; B5(16) = 2-amino-2-(pent-4-en-1-yl)hept-6-enoic acid = 2,2-bis(4-pentenyl)glycine (stitching residue), C=CCCCC(CCCC=C)(N[*:1])C(=O)[*:2]; B5(23) = 2-amino-2-(pent-4-en-1-yl)hept-6-enoic acid (2,2-bis(4-pentenyl)glycine), stitching residue, C=CCCCC(CCCC=C)(N[*:1])C(=O)[*:2]; B5(24) = 2-amino-2-(pent-4-en-1-yl)hept-6-enoic acid, 2,2-bis(4-pentenyl)glycine (stitching residue), C=CCCCC(CCCC=C)(N[*:1])C(=O)[*:2]; TfeGA = (S)-2-amino-3-((carboxymethyl)(2,2,2-trifluoroethyl)amino)propanoic acid, O=C([C@H](CN(CC(=O)[*:3])CC(F)(F)F)N[*:1])[*:2]; B5(3) = 2,2-bis(4-pentenyl)glycine (stitching residue), C=CCCCC(CCCC=C)(N[*:1])C(=O)[*:2]; B5″ = 2,2-bis(4-pentenyl)glycine, stitching residue, C=CCCCC(CCCC=C)(N[*:1])C(=O)[*:2]; Asp(OEt)″ = aspartic acid side-chain ethyl ester, CCOC(=O)C[C@H](N[*:1])C(=O)[*:2]; Asp(OMe) = [Me]AspE, Asp side-chain methyl ester, COC(=O)C[C@H](N[*:1])C(=O)[*:2]; Phe(3-CF3) = N[C@@H](Cc1cccc(C(F)(F)F)c1)C(=O)O; Phe(F5) = N[C@@H](Cc1c(F)c(F)c(F)c(F)c1F)C(=O)O; Phe(3-COOH) = N[C@@H](Cc1cccc(C(=O)O)c1)C(=O)O; Phe(3-OMe) = COc1cccc(C[C@H](N)C(=O)O)c1; Phe(2-Cl) = N[C@@H](Cc1ccccc1Cl)C(=O)O; Phe(3-F) = N[C@@H](Cc1cccc(F)c1)C(=O)O; His(τ-Me) = Cn1cnc(C[C@H](N)C(=O)O)c1; Bta = N[C@@H](Cc1csc2ccccc12)C(=O)O; Lys(iPr) = CC(C)NCCCC[C@H](N)C(=O)O; αAllylPro = C=CC[C@@]1(C(=O)O)CCCN1; tBuAla = CC(C)(C)C[C@H](N)C(=O)O; 3Thi = N[C@@H](Cc1ccsc1)C(=O)O; Cha = N[C@@H](CC1CCCCC1)C(=O)O; S8 = C=CCCCCCC[C@](C)(N)C(=O)O; R5 = C=CCCC[C@@](C)(N)C(=O)O; hSer = N[C@@H](CCO)C(=O)O; Aib = CC(C)(N)C(=O)O
T1: B-cat-Halo (beta-catenin HaloTag fusion expressed in HEK293 cells) (UniProt P35222 1-781, HaloTag NanoBRET 618 Ligand bound to the HaloTag)
T1 sequence (looked up): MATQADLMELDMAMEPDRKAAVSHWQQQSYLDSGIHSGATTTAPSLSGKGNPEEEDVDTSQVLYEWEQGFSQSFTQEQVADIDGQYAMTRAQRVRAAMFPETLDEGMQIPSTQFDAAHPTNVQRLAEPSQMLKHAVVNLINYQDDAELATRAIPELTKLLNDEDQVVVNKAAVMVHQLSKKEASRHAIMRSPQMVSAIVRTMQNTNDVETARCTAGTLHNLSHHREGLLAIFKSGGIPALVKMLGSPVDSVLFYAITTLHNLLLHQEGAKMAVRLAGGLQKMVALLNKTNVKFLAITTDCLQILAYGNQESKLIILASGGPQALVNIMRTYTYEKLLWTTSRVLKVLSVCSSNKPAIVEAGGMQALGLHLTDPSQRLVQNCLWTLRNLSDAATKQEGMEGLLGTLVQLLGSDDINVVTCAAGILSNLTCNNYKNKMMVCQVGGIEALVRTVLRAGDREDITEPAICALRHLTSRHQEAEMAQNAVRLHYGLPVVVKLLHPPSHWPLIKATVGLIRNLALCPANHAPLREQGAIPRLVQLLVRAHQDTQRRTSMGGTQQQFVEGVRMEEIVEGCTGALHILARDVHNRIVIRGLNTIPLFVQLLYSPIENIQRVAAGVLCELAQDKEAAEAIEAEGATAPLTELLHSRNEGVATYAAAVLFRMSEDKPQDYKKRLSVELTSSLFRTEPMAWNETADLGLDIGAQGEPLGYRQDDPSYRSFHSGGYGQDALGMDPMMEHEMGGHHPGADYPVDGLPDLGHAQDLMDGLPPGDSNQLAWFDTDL

T2: B-cat-Halo (beta-catenin HaloTag construct expressed in HEK293 cells) (UniProt P35222 1-781)
T2 sequence (looked up): T1 sequence (looked up)

T3: full-length beta-Catenin (Uniprot ID P35222) (Homo sapiens (Human), UniProt P35222 2-781)
T3 construct: also called bCat; B-Catenin
T3 sequence: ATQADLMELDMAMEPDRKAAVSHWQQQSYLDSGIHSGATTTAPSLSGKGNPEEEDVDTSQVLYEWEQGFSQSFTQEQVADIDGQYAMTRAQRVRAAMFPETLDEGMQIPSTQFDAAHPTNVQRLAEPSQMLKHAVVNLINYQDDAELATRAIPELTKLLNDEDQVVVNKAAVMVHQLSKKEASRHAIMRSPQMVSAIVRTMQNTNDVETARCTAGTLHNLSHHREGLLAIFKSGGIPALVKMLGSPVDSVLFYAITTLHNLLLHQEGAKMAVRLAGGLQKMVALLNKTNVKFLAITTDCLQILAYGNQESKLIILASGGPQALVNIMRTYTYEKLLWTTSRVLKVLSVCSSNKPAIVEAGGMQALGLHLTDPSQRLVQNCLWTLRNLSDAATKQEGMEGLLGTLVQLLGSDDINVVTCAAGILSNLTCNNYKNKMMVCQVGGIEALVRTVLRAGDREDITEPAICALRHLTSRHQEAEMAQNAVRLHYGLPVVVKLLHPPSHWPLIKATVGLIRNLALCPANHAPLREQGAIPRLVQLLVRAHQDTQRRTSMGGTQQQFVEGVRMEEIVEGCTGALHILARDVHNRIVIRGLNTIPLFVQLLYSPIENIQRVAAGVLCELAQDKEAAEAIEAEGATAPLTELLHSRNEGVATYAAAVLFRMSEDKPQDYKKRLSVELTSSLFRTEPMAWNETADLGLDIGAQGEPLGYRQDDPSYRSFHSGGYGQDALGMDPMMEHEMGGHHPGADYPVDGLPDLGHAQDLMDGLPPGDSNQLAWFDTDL

T4: B-cat-Halo (UniProt P35222 1-781)
T4 sequence (looked up): T1 sequence (looked up)

B1: I-398 (peptide)
peptide: Ac-[αAllylPro]DA[B5(16)]DHAAFV[SeN″][Phe(3-F)][Bta]Q-NH2
modifications: staple 1-4, 4-11; not fully specified; printed as Ac-PL3-Asp-Ala-B5-Asp-His-Ala-Ala-Phe-Val-SeN-3FF-BztA-Gln-NH2
notes: Stapled (stitched) peptide
B2: I-400 (peptide)
peptide: Ac-[αAllylPro]DA[B5(16)]DHAAFQ[SeN″][Phe(3-F)][Bta]Q-NH2
modifications: staple 1-4, 4-11; not fully specified; printed as Ac-PL3-Asp-Ala-B5-Asp-His-Ala-Ala-Phe-Gln-SeN-3FF-BztA-Gln-NH2
notes: Stapled (stitched) peptide
B3: I-399 (peptide)
peptide: XDAXDHAAFQXFXQ
modifications: not fully specified; as printed: Ac-PL3-Asp-Ala-B5-Asp-His-Ala-Ala-Phe-Gln-S8-3FF-BztA-Gln-NH2; N-terminal acetyl, C-terminal amide; staples PL3(1)-B5(4) and B5(4)-S8(11) by olefin metathesis
notes: Stapled (stitched) peptide

Each binder was assayed against T1, B-cat-Halo (beta-catenin HaloTag fusion …) (assay: cell-based or functional assay).

Point of comparison: Ac-[αAllylPro]D[tBuAla][B5(3)]N[Phe(3-COOH)]AAFT[PyrS2″][3Thi][Bta]Q-NH2 (staple 1-4, 4-11) [I-2336], “NanoBRET Abs IC50” value 14.4 µM. Against it:
- Ac-[αAllylPro]N[Cha][B5(3)]DQ[hSer]AFL[PyrS2″]F[Bta]Q-NH2 (staple 1-4, 4-11; also: earlier eluting isomer, configuration not given here) [I-2354] — higher, > 20 µM
- Ac-[αAllylPro][Asp(OMe)][tBuAla][B5(3)]DDAAFL[PyrS2″][3Thi][Bta]Q-NH2 (staple 1-4, 4-11) [I-2359] — higher, > 20 µM
- Ac-[αAllylPro]D[tBuAla][B5(3)]NT[Aib]AFN[PyrS2″][3Thi][Bta]Q-NH2 (staple 1-4, 4-11) [I-2338] — higher, > 20 µM
- Ac-[αAllylPro]D[tBuAla][B5(3)][Asp(OEt)″]DAAFL[PyrS2″][3Thi][Bta]Q-NH2 (staple 1-4, 4-11) [I-2357] — higher, > 20 µM
- Ac-[αAllylPro]N[Cha][B5(3)]DQ[Lys(iPr)]AFL[PyrS2″]F[Bta]K-NH2 (staple 1-4, 4-11) [I-2350] — higher, > 20 µM
- Ac-[αAllylPro]N[Cha][B5(3)]D[Phe(3-COOH)][Lys(iPr)]AFL[PyrS2″]F[Bta]Q-NH2 (staple 1-4, 4-11) [I-2340] — higher, > 20 µM
- Ac-[αAllylPro]D[tBuAla][B5(3)]D[Asp(OEt)″]AAFL[PyrS2″][3Thi][Bta]Q-NH2 (staple 1-4, 4-11) [I-2358] — 3.6-fold higher, 52.2 µM
- Ac-[αAllylPro]N[Cha][B5(3)]D[TfeGA][Lys(iPr)]AFL[PyrS2″]F[Bta]Q-NH2 (staple 1-4, 4-11) [I-2341] — higher, > 20 µM

The binders below were run against T2, B-cat-Halo (beta-catenin HaloTag …) (assay: cell-based or functional assay).

Point of comparison: Ac-[αAllylPro]D[tBuAla][B5″]DDAAFN[PyrS2(3)][Phe(F5)][Bta]Q-NH2 (staple 1-4, 4-11) [I-1186], “NanoBRET Abs IC50” value 23.6 µM. Against it:
- Ac-PD[tBuAla][R5]DDAAFL[PyrS2(3)][3Thi][Bta]Q-NH2 (staple 4-11) [I-1181] — not separable, > 20 µM
- Ac-[αAllylPro]D[tBuAla][B5″]DDAAFL[PyrS2(3)][Phe(F5)][Bta]Q-NH2 (staple 1-4, 4-11) [I-1185] — within 1.5-fold, 26.9 µM

These binders were tested against T3, full-length beta-Catenin (Uniprot ID …) (assay: fluorescence polarization competition; 10 nM full-length beta-catenin + 10 nM 5FAM-TCF4(10-53) probe, peptide titrated).
Protocol: The plate was incubated protected from light for 60 minutes at 20° C. prior to read. Reads were performed on a CLARIOstar plate reader (BMG Labtech) in duplicate, and data were fitted to a 1:1 binding model with hill slope using an in-house script. All provided concentrations are final concentrations.

Point of comparison: Ac-[αAllylPro]DA[B5(23)]D[His(τ-Me)]AAFV[S8][Phe(3-F)][Bta]Q-NH2 (staple 1-4, 4-11, Stapled (stitched) peptide) [I-403], EC50 2.13 µM. Against it:
- B1 — within 1.5-fold, 2.16 µM
- B2 — 1.7-fold higher, 3.59 µM
- Ac-[αAllylPro]DA[B5(23)]DEAAFT[S8]F[Bta]H-NH2 (staple 1-4, 4-11, Stapled (stitched) peptide) [I-420] — 17-fold lower, 0.128 µM
- Ac-[αAllylPro]DA[B5(23)]DEAAFT[S8]F[Bta]Q-NH2 (staple 1-4, 4-11, Stapled (stitched) peptide) [I-423] — 20-fold lower, 0.105 µM
- Ac-[αAllylPro]DV[B5(23)]DEAAFQ[S8]F[Bta]Q-NH2 (staple 1-4, 4-11, Stapled (stitched) peptide) [I-410] — 43-fold lower, 0.05 µM
- B3 — within 1.5-fold, 2.5 µM

What follows are binders tested against T4, B-cat-Halo (assay: cell-based or functional assay).

Point of comparison: Ac-[αAllylPro]D[Cha][B5(24)]DDAAFL[PyrS2″][Phe(2-Cl)][Bta]T-NH2 (staple 1-4, 4-11) [I-1139], “NanoBRET Abs IC50” value 18 µM. Against it:
- Ac-[αAllylPro]D[tBuAla][B5(24)]DDAAFN[PyrS2″][Phe(2-Cl)][Bta][Lys(iPr)]-NH2 (staple 1-4, 4-11) [I-1130] — 2.4-fold lower, 7.6 µM
- Ac-[αAllylPro]D[Cha][B5(3)]DDAA[Phe(3-CF3)]S[PyrS2″]F[Bta]Q-NH2 (staple 1-4, 4-11) [I-1125] — higher, > 20 µM
- Ac-[αAllylPro]D[Cha][B5(24)]DDAAFS[PyrS2″][Phe(2-Cl)][Bta][dT]-NH2 (staple 1-4, 4-11) [I-1136] — within 1.5-fold, 14.9 µM
- Ac-[αAllylPro]D[Cha][B5(24)]DDAAFS[PyrS2″][Phe(2-Cl)][Bta]L-NH2 (staple 1-4, 4-11) [I-1138] — within 1.5-fold, 19.8 µM
- Ac-[αAllylPro]D[tBuAla][B5(24)]DD[Lys(iPr)]AFN[PyrS2″][Phe(2-Cl)][Bta]Q-NH2 (staple 1-4, 4-11) [I-1131] — within 1.5-fold, 18.8 µM
- Ac-[αAllylPro]D[tBuAla][B5(24)]DDA[Lys(iPr)]FN[PyrS2″][Phe(2-Cl)][Bta]Q-NH2 (staple 1-4, 4-11) [I-1132] — higher, > 20 µM
- Ac-[αAllylPro]D[Cha][B5(24)]DDAAFS[PyrS2″][Phe(2-Cl)][Bta][hSer]-NH2 (staple 1-4, 4-11) [I-1137] — 1.5-fold lower, 12 µM
- Ac-[αAllylPro]D[Cha][B5(3)]DDAA[Phe(3-OMe)]S[PyrS2″]F[Bta]Q-NH2 (staple 1-4, 4-11) [I-1124] — higher, > 20 µM

Source: patent US20240116985A1 (published 2024)
